Assay results published in the supplement of paper PMC9233669.
Fewer inactive variants are shown than the library holds.

Legend:
[1] = system: biotinyl-Trp-oxazolone; test: self-aminoacylation, catalytic enhancement (BWO) (fold over background); higher = more active; k-Seq, kA / k0A0; sequences stand for … in GGGAAUGGAUCCACAUCUACGAAUUC…UUCACUGCAGACUUGACGAAGCUG
Method in brief: (§1)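 Catalytic enhancement equals the median kA over the uncatalyzed rate, the latter read from the low-activity peak of a bimodal Gaussian fit. Values of kA came from fitting each sequence's fraction reacted to a pseudo-first-order model, with 1000 bootstraps. Reacted RNA was captured with streptavidin and quantified by triplicate qPCR and Illumina sequencing after 90 minutes at room temperature with 2–1250 μM biotinyl-aminoacyl-oxazolone and 0.43 μM mutagenized RNA pools bearing a 21-nt variable region.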

[2] = system: biotinyl-Met-oxazolone; test: self-aminoacylation, catalytic enhancement (BMO) (fold over background); higher = more active; k-Seq, kA / k0A0; sequences stand for … in GGGAAUGGAUCCACAUCUACGAAUUC…UUCACUGCAGACUUGACGAAGCUG
Method in brief: as §1

[3] = system: biotinyl-Val-oxazolone; test: self-aminoacylation, catalytic enhancement (BVO) (fold over background); higher = more active; k-Seq, kA / k0A0; sequences stand for … in GGGAAUGGAUCCACAUCUACGAAUUC…UUCACUGCAGACUUGACGAAGCUG
Method in brief: as §1

[4] = system: biotinyl-Ile-oxazolone; test: self-aminoacylation, catalytic enhancement (BIO) (fold over background); higher = more active; k-Seq, kA / k0A0; sequences stand for … in GGGAAUGGAUCCACAUCUACGAAUUC…UUCACUGCAGACUUGACGAAGCUG
Method in brief: as §1

[5] = system: biotinyl-Leu-oxazolone; test: self-aminoacylation, catalytic enhancement (BLO) (fold over background); higher = more active; k-Seq, kA / k0A0; sequences stand for … in GGGAAUGGAUCCACAUCUACGAAUUC…UUCACUGCAGACUUGACGAAGCUG
Method in brief: as §1

[6] = system: biotinyl-Phe-oxazolone; test: self-aminoacylation, catalytic enhancement (BFO) (fold over background); higher = more active; k-Seq, kA / k0A0; sequences stand for … in GGGAAUGGAUCCACAUCUACGAAUUC…UUCACUGCAGACUUGACGAAGCUG
Method in brief: as §1

Sequence | self-aminoacylation [1] | self-aminoacylation [2] | self-aminoacylation [3] | self-aminoacylation [4] | self-aminoacylation [5] | self-aminoacylation [6]
AAAACCCUGGUCAUCGAGUGA [Fam2.1 aminoacylation ribozyme variant] | 73.3 | 66.9 | 26.3 | 26.8 | 65.1 | 462
AAACACCUAGGUCAUCGGGUG [Fam2.2 aminoacylation ribozyme variant] | 4.7 | 2.46 | 3.09 | 3.41 | 3.04 | 23.9
AAACUUGCUAAUAGUCGCAAG [Fam3.1 aminoacylation ribozyme variant] | 4.6 | 1.76 | 1.97 | 2.62 | 1.29 | 2.21
AAAUGUGCUAAUAGUCGCAAG [Fam3.1 aminoacylation ribozyme variant] | 1.48 | 2.16 | 1.46 | 2.12 | 1.53 | 2.84
AAAUUUGCUAAGAGUCGCAAG [Fam3.1 aminoacylation ribozyme variant] | 2.51 | – | – | 2.05 | – | 2.61
AACAUUGCUAAUAGUCGCAAG [Fam3.1 aminoacylation ribozyme variant] | 2.67 | – | – | 2.5 | – | 2.9
AACUAUGCUAAUAGUCGCAAG [Fam3.1 aminoacylation ribozyme variant] | – | – | – | 2.41 | 2.16 | 2.45
AACUUUGCUAAUAGUUGCAAG [Fam3.1 aminoacylation ribozyme variant] | – | – | – | 2.21 | – | 3.03
AAGCUUGCUACUAGUCGCAAG [Fam3.1 aminoacylation ribozyme variant] | 2.23 | 2.37 | – | 2.45 | 2.03 | –
AAGCUUGCUGAUAGUCGCAAG [Fam3.1 aminoacylation ribozyme variant] | 3.03 | 2.4 | 2.45 | 2.19 | – | 4.23
AAGUUGGCUAACAGUCGCAAG [Fam3.1 aminoacylation ribozyme variant] | 2.26 | – | – | 2.05 | – | 2.15
ACGCUUGCUAAUAGUCGCAAG [Fam3.1 aminoacylation ribozyme variant] | 2.88 | 2.29 | – | 2.28 | – | 5.67
AUUAACCUGGUCCUCGAGUGA [Fam2.1 aminoacylation ribozyme variant] | 4.11 | 3.92 | – | 2.3 | 4.42 | 19.7
AUUACACUCGUCAUCGAGUGA [Fam2.1 aminoacylation ribozyme variant] | 4.43 | 3.51 | – | 2.13 | 3.87 | 18
AUUACACUGGUCAUGGAGUGA [Fam2.1 aminoacylation ribozyme variant] | 2.06 | 2.63 | 2 | – | 2.48 | 2.95
AUUACCCUGGUCAUCGCGUCA [Fam2.1 aminoacylation ribozyme variant] | 2.27 | 2.38 | 2.03 | – | 2.14 | 12.2
AUUACCCUGGUCAUCGCUUGA [Fam2.1 aminoacylation ribozyme variant] | 3.08 | 2.25 | – | 2.09 | – | 10.7
AUUCACAUAGGUCAUCUGGUG [Fam2.2 aminoacylation ribozyme variant] | 3.03 | 2.89 | – | 2.1 | 3.86 | 15.7
AUUCACCUAAGUCAUUGGGUG [Fam2.2 aminoacylation ribozyme variant] | 2.6 | 3.48 | – | 2.31 | 3.65 | 20.5
AUUCACCUAGAUCAUAGGGUG [Fam2.2 aminoacylation ribozyme variant] | 2.9 | 3.97 | 2.07 | – | 4.64 | 13.6
AUUCACCUAGGUCACCGGGUC [Fam2.2 aminoacylation ribozyme variant] | – | – | 2.18 | – | – | –
AUUCACCUAGGUCAUCGAGUU [Fam2.2 aminoacylation ribozyme variant] | – | 3.3 | 2.25 | 2.69 | 4.79 | 7.47
AUUCACCUAGGUCUUCGGGGG [Fam2.2 aminoacylation ribozyme variant] | – | 2.43 | 3.04 | 3.04 | 3.62 | 12
AUUCACCUAGGUUAUCGGGGG [Fam2.2 aminoacylation ribozyme variant] | 2.02 | – | 2.01 | – | 2.29 | 6.72
AUUCACCUAGUUCAUCGGGUG [Fam2.2 aminoacylation ribozyme variant] | 2.49 | 2.49 | 2.15 | – | 2.74 | 12.9
AUUCACCUAUUUCAUCGGGUG [Fam2.2 aminoacylation ribozyme variant] | 3.17 | 2.93 | 2.02 | – | 3.49 | 8.43
AUUCACCUGGGUCAUCGGGCG [Fam2.2 aminoacylation ribozyme variant] | 2.91 | 4.48 | 4.75 | 3.58 | 5.26 | –
AUUCACCUUGGUCAUCUGGUG [Fam2.2 aminoacylation ribozyme variant] | 2.75 | 2.82 | 2.16 | – | 3.3 | 17.9

Sequence | self-aminoacylation [1] | self-aminoacylation [2] | self-aminoacylation [3] | self-aminoacylation [4] | self-aminoacylation [5] | self-aminoacylation [6]
AUUCACUUAGGUCAUCGGGUA [Fam2.2 aminoacylation ribozyme variant] | – | 2.38 | 2.15 | 2.29 | – | –
AUUGCCCUGGUCAUCGAGUGC [Fam2.1 aminoacylation ribozyme variant] | 4.08 | 4.79 | 2.32 | – | 4.73 | 11.6
AUUUACCUAGUUCAUCGGGUG [Fam2.2 aminoacylation ribozyme variant] | 2.25 | 2.61 | – | 2.13 | 3.25 | 15.2
CAACACUUCAAGCAAUCGGGC [Fam1B.1 aminoacylation ribozyme variant] | – | 2.2 | 2.23 | 2.15 | 2.2 | 4.52
CAGUUUGCUAAUAGUCGCAAU [Fam3.1 aminoacylation ribozyme variant] | – | – | – | 2.06 | – | 2
CAGUUUGCUAAUAGUCGCGAG [Fam3.1 aminoacylation ribozyme variant] | 3.86 | – | 2.01 | 2.33 | 3.12 | 12.2
CCACACAUCAAGCAAUCGGGC [Fam1B.1 aminoacylation ribozyme variant] | 2.1 | – | – | 2.01 | – | –
CCACACCUCAAGCAAUCGCUC [Fam1B.1 aminoacylation ribozyme variant] | 3.13 | 2.85 | – | 2.12 | 2.72 | 9.63
CCACACCUCAAGCAAUCGGCC [Fam1B.1 aminoacylation ribozyme variant] | 2.61 | – | 2.42 | – | – | –
CCACACUUCAAGCAAACGGGC [Fam1B.1 aminoacylation ribozyme variant] | – | – | 2.03 | – | – | –
CCACACUUCAAGCAACCGCUC [Fam1B.1 aminoacylation ribozyme variant] | – | – | 2.09 | – | – | 8.07
CCACACUUCAAGCAACCGGUU [Fam1B.1 aminoacylation ribozyme variant] | – | – | 2.04 | – | – | –
CCACACUUCAAGCAAUCGGCG [Fam1B.1 aminoacylation ribozyme variant] | 2.05 | 2.16 | 2.18 | – | – | –
CCACACUUCAAGCCAUCCGUC [Fam1B.1 aminoacylation ribozyme variant] | – | – | – | 2.04 | – | –
CCACACUUCACGCAAUCGCUC [Fam1B.1 aminoacylation ribozyme variant] | – | – | 2.19 | – | – | –
CCACACUUCAUGCAAUCGGCC [Fam1B.1 aminoacylation ribozyme variant] | – | 2.9 | 2.8 | 2.44 | 2.72 | 14.2
CCACCCUUCAAGCAAUCGGCC [Fam1B.1 aminoacylation ribozyme variant] | 3.11 | – | 2.39 | – | – | 3.03
CCACCCUUCAAGCAAUCGGGC [Fam1B.1 aminoacylation ribozyme variant] | 2.65 | – | 3.02 | 2.06 | – | 15.4
CCACCCUUCAAGCAUUCGGUC [Fam1B.1 aminoacylation ribozyme variant] | – | – | 2.56 | – | – | –
CCCCACUUCAAACAAUCGGUC [Fam1B.1 aminoacylation ribozyme variant] | 61.2 | – | 2.15 | – | 2.83 | 140
CCCCACUUGAAGCAAUCGGUC [Fam1B.1 aminoacylation ribozyme variant] | 2.12 | – | 2.23 | – | – | –
CCGCCCUUCAAGCAAUCGGUC [Fam1B.1 aminoacylation ribozyme variant] | 29.9 | – | 2.62 | – | 2.13 | 38.9
CUACUUCAAACACUCGGGCUG [Fam1A.1 aminoacylation ribozyme variant] | – | – | 2.2 | 2.18 | 2.06 | –
CUUACCGUGGUCAUCGAGUGA [Fam2.1 aminoacylation ribozyme variant] | 3.87 | 3.29 | 2.68 | – | 2.59 | 10.3
CUUACCUUGGUCAUCGAGUGA [Fam2.1 aminoacylation ribozyme variant] | 3.9 | 3.25 | 2.66 | – | 2.99 | 3.62
GCACACUUCAAACAAUCGGUC [Fam1B.1 aminoacylation ribozyme variant] | 59 | 2.13 | 2.19 | – | 2.99 | 92.2
GCACACUUCAAGCAACCGGUC [Fam1B.1 aminoacylation ribozyme variant] | 4.35 | – | 2.43 | 2.31 | 2.46 | 2.92
